The source of these data is paper PMC8149785.

The Kd is the constant that tells how readily two partners part at equilibrium. Low readings indicate a tighter complex, high ones a looser complex.

One test deals with mouse C3b (mouse) (UniProt P01027). In words: SPR; C3b amine coupled to a C1 chip (233 RU murine, 258 RU human); FH flowed over, two-fold dilution series from 2 uM to 6 nM; BIAcore T200, 25°C, HBSP+ (10 mM HEPES, 150 mM NaCl, 0.05% P20); equilibrium data, 1:1 binding model. (SPR reads the build-up and loss of mass on a sensor chip optically.)
In another test the target is human C3b (human) (UniProt P01024). The description is as above.

With “recombinant murine factor H (from UniProt P06909 19-1234) (natural protein)”, the figures for the Kd with mouse C3b (mouse) and with human C3b (human) were 1.2 µM and 1.6 µM, respectively.
